Test results as given in the supplement of paper PMC10126150.
± gives the standard deviation of the averaged measurements.

System: ATP
Test: switch fluorescence ratio, 500 uM ATP over buffer (Cy3 cluster intensity, sum of 5 cycles each) (fold (ratio)); higher = stronger signal-on switching upon ATP binding; sequences stand for … in TCGTCGGCAGCGTCAGATGTGTATAAGAGACAGTTTTTTTTTTTTTTTTTTTTTTTTT…TC
Conditions: aptamer strand: ATP DNA aptamer (quencher-CACCTGGGGGAGTATTGCGGAGGAAGG + anchor), 100 nM annealed; ATP concentration: 500 uM
Outline: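 For every switch-domain sequence, the fluorescence ratio is the mean of per-cluster values, each being summed target-cycle Cy3 intensity over summed buffer-cycle Cy3 intensity. Clusters outside 100-1000 RFU were excluded. On a modified Illumina MiSeq flow-cell, the Cy3-labelled switching-strand clusters were annealed to 100 nM quencher-labelled ATP aptamer, imaged in selection buffer and then after 15 min with 500 uM ATP at 22 °C. Five such cycles were run, with NaOH stripping and re-annealing between them.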
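Further: ATP exposure 15 min at 22 °C before imaging.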

GGGTTTATAT
switch fluorescence ratio: 0.997 ± 0.022

GGGTTTATTT
switch fluorescence ratio: 0.982 ± 0.014

GGGTTTCAAT
switch fluorescence ratio: 0.9372 ± 0.0067

GGGTTTCAGC
switch fluorescence ratio: 1 ± 0.053

GGGTTTGAT
switch fluorescence ratio: 1.03 ± 0.025

GGGTTTGATG
switch fluorescence ratio: 0.984 ± 0.035

GGGTTTGGGA
switch fluorescence ratio: 0.9899 ± 0.0088

GGGTTTGGTG
switch fluorescence ratio: 0.987 ± 0.02

GGGTTTTGAA
switch fluorescence ratio: 0.984 ± 0.021

GGGTTTTGG
switch fluorescence ratio: 0.998 ± 0.017

GGGTTTTGGT
switch fluorescence ratio: 0.978 ± 0.022

GGGTTTTTGA
switch fluorescence ratio: 1.02 ± 0.024

GGGTTTTTTG
switch fluorescence ratio: 1 ± 0.031

GGTAAAAGGT
switch fluorescence ratio: 1.02 ± 0.051

GGTAAAATTT
switch fluorescence ratio: 1 ± 0.03

GGTAAAGACG
switch fluorescence ratio: 0.992 ± 0.013

GGTAAAGTTG
switch fluorescence ratio: 1.07 ± 0.098

GGTAAATATG
switch fluorescence ratio: 1 ± 0.019

GGTAAATATT
switch fluorescence ratio: 0.9981 ± 0.0046

GGTAACCGGG
switch fluorescence ratio: 1.019 ± 0.0016

GGTAACTTTG
switch fluorescence ratio: 0.989 ± 0.031

GGTAATTGGG
switch fluorescence ratio: 1.19 ± 0.27

GGTAATTTTT
switch fluorescence ratio: 1.01 ± 0.034

GGTACCAGTT
switch fluorescence ratio: 1.01 ± 0.012

GGTACCATTG
switch fluorescence ratio: 0.991 ± 0.03

GGTACCCTGG
switch fluorescence ratio: 1.03 ± 0.014

GGTACTATTT
switch fluorescence ratio: 1 ± 0.026

GGTACTCGGG
switch fluorescence ratio: 0.961 ± 0.013

GGTACTCGTT
switch fluorescence ratio: 0.991 ± 0.016

GGTACTCTTT
switch fluorescence ratio: 1 ± 0.037

GGTACTGGGA
switch fluorescence ratio: 0.997 ± 0.0025

GGTAGAGACT
switch fluorescence ratio: 0.9755 ± 0.0023

GGTAGAGGGC
switch fluorescence ratio: 0.973 ± 0.061

GGTAGAGTTG
switch fluorescence ratio: 0.9758 ± 0.0062

GGTAGATGTC
switch fluorescence ratio: 1.01 ± 0.054

GGTAGCGGGG
switch fluorescence ratio: 1.02 ± 0.014

GGTAGGAAAA
switch fluorescence ratio: 0.972 ± 0.076

GGTAGGAGCT
switch fluorescence ratio: 1.02 ± 0.058

GGTAGGGAGC
switch fluorescence ratio: 0.993 ± 0.055

GGTAGGGTGC
switch fluorescence ratio: 0.985 ± 0.074

GGTAGTACGG
switch fluorescence ratio: 0.983 ± 0.014

GGTAGTAGAG
switch fluorescence ratio: 1.02 ± 0.011

GGTAGTAGTA
switch fluorescence ratio: 1 ± 0.034

GGTAGTGAGT
switch fluorescence ratio: 0.9765 ± 0.0078

GGTAGTGTGG
switch fluorescence ratio: 0.992 ± 0.023

GGTATAGGCT
switch fluorescence ratio: 0.996 ± 0.014

GGTATAGGGT
switch fluorescence ratio: 0.981 ± 0.01

GGTATCGGTA
switch fluorescence ratio: 1.005 ± 0.0094

GGTATCGGTT
switch fluorescence ratio: 0.992 ± 0.045

GGTATGACCC
switch fluorescence ratio: 1.0394 ± 0.00014

GGTATGAGAC
switch fluorescence ratio: 1.01 ± 0.044

GGTATGGAGT
switch fluorescence ratio: 1.013 ± 0.0057

GGTATGGGAT
switch fluorescence ratio: 1.022 ± 0.0059

GGTATGGGGG
switch fluorescence ratio: 1.02 ± 0.031

GGTATGTGTT
switch fluorescence ratio: 0.987 ± 0.04

GGTATTACGT
switch fluorescence ratio: 0.972 ± 0.032

GGTATTGGGG
switch fluorescence ratio: 1.03 ± 0.034

GGTATTTACA
switch fluorescence ratio: 1.034 ± 0.0033

GGTCAAGCTG
switch fluorescence ratio: 1 ± 0.044

GGTCAGGGTC
switch fluorescence ratio: 1.01 ± 0.062

GGTCATCTTG
switch fluorescence ratio: 0.975 ± 0.02

GGTCATTTTT
switch fluorescence ratio: 0.995 ± 0.021

GGTCCAGTGA
switch fluorescence ratio: 1.02 ± 0.023

GGTCCATGGG
switch fluorescence ratio: 0.967 ± 0.035

GGTCCGCATA
switch fluorescence ratio: 2.82 ± 1.2

GGTCCGTCGT
switch fluorescence ratio: 1.02 ± 0.038

GGTCCGTTTC
switch fluorescence ratio: 1.01 ± 0.056

GGTCCTGGAC
switch fluorescence ratio: 1.02 ± 0.019

GGTCCTGGTT
switch fluorescence ratio: 0.9859 ± 0.0021

GGTCGAGGTT
switch fluorescence ratio: 0.991 ± 0.035

GGTCGCAGGG
switch fluorescence ratio: 1 ± 0.026

GGTCGCGGGT
switch fluorescence ratio: 1 ± 0.038

GGTCGGCATA
switch fluorescence ratio: 1.01 ± 0.042

GGTCGGGGAT
switch fluorescence ratio: 1.01 ± 0.022

GGTCGGTAGA
switch fluorescence ratio: 0.998 ± 0.015

GGTCGTTGAA
switch fluorescence ratio: 1.02 ± 0.057

GGTCTACAGA
switch fluorescence ratio: 1.02 ± 0.011
